Target: T1, taxol-stabilized microtubules, P02550
T1 chain: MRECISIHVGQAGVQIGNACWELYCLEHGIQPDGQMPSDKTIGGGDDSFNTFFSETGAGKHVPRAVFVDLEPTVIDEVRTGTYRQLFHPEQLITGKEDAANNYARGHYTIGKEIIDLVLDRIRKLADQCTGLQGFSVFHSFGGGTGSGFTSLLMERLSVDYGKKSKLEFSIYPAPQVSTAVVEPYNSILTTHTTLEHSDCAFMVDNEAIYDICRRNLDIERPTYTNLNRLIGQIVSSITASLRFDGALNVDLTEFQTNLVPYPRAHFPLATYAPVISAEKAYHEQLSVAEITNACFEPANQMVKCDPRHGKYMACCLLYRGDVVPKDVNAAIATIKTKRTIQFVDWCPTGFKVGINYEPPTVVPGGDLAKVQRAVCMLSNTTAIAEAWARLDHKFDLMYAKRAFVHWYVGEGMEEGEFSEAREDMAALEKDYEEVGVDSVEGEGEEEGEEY
Assay: GST pull-down of microtubules, quantified tubulin band intensity
Conditions: chain shown with the change; BRB80 buffer at room temperature; n=3; parent: est. 27; read off a plot

B1: GST-tagged full-length (1-314 aa) CCDC74B M67N; L68N; A69N; L71N; L230N; L233N; L234N (protein)
chain: MSGAGVAAGTRPPSSPTPGSRRRRQRPSVGVQSLRPQSPQLRQSDPQKRNLDLEKSLQFLQQQHSENNNKNHEEIEHLKRENKDLRYKLIMNQTSQKKDSLSTSSFQSVKSISNSGKARPQPGSFNKQDSKADVPQKADLEEEPLLHNSKLDKVPGVQGQARKEKAEASNAGAACMGNSQHQGRQMGAAAHPPMILPLPLRKPTTLRQCEVLIRELWNTNLLQTQELQHNKSNNEGSQRPQAVPEEASFPRDQEATHFPKVSTKSLSKKCLLLSPPVAERAILPALKQTPKNNFAERQKRLQAMQKRRLHRSVL
- response (relative intensity (GST = 1.0)): 25
